Consider two molecules from publication PMC1175818, “A Conserved Mechanism for Sulfonucleotide Reduction” (PLoS Biology, 2005).

In data set [1] the target is E. coli PAPS reductase (E. coli). The data set can be described thus: SEC; Superdex 200 gel filtration; 50 mM Tris-HCl (pH 8.0), 10% glycerol, 5 mM DTT, ionic strength adjusted to 150 mM with NaCl; column calibrated with protein standards; no change in retention volume when DTT was omitted. (In gel filtration, larger molecules generally elute earlier.)
Data set [2] deals with the molecule itself. The data set is described as above.

For E. coli PAPS reductase (enzyme), the stoichiometry N (commonly the number of molecules, sites or subunits per partner or assembly) in data set [1] was 2.

B1: P. aeruginosa APS reductase (enzyme, UniProt O05927 1-267, looked up)
chain: MLPFATIPATERNSAAQHQDPSPMSQPFDLPALASSLADKSPQDILKAAFEHFGDELWISFSGAEDVVLVDMAWKLNRNVKVFSLDTGRLHPETYRFIDQVREHYGIAIDVLSPDPRLLEPLVKEKGLFSFYRDGHGECCGIRKIEPLKRKLAGVRAWATGQRRDQSPGTRSQVAVLEIDGAFSTPEKPLYKFNPLSSMTSEEVWGYIRMLELPYNSLHERGYISIGCEPCTRPVLPNQHEREGRWWWEEATHKECGLHAGNLISKA
notes: APS reductase of P. aeruginosa, gene amplified from P. aeruginosa genomic DNA ATCC 47085D; Cloned into pET24b or pET14b; source: E. coli BL21(DE3), purified (HiTrap Chelating, Superdex 200 gel filtration)
On to B1, for which the “stoichiometry N” value in data set [2] turned out to be 4.
